Assay: soluble fraction after stress (log2 fold change); higher = more stays soluble; pooled small domains, quantitative proteomics
Conditions: stress: 50 degC
How it was run: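 Each library was heated to 50°C as a stress step. The libraries, made up of small protein domains, were pooled and analysed at high throughput by quantitative proteomics. The reported value is the base-two logarithm of the fold change in each protein's soluble amount after stress, taken as a measure of aggregation propensity. The higher the value, the more protein stays in solution.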

Sequence	soluble fraction (log2)
HMEQQVDYTQFIQDVRQGQIREVDVDRNGVINGIKRSGENFVTVIPGGYDRDLINDLVKQGVNATGEL	0.107
HMEQVKFFDAKVITTPPNRLKTRYTPAGNLRPEADWLQSGAIVPVYETSGAGWYRIGYQTWASAEWMQRLD	-0.934
HMEQVSDPALLERYAKEVVAASPKAVADYQAGNAKAFQALVGQMMKRTKGKGDPALIREILQKL	0.0957
HMEQVTMSNFLDKWGTSTKSPNAWYTSLSPMQKAEAKLLKEESGLTWNKWYEKNIYVGDGTN	0.249
HMERAYGVRVSLRLDDPFRTLLGADWSRTHWFASAEERDAALLEMSRKHEFSRPGDQPALVYEKVQN	-0.728
HMERDVNQLTPRERDILKLIAQGLPNKMIARRLDITESTVKVHVKHMLKKMKLKSRVEAAVWVHQERI	-1.38
HMEREQNILQGREVVERELRRLGLAEAYTVSDIAKALKFDDEEQFLAKVGFGDIQSRQISGAIALMEKN	0.0472
HMERFLENAIPVLGETGLDIKSATEDFENALIRQALHLSGGNKNRAATLLGLKRTTFVEMLKRKSL	-0.806
HMERFMEFVITDTQQGQRLDVVLTETTEHLGSRSHMQRSIRAGLVSIDGITTTRASTKVSSGQIIRVEPT	-1.49
HMERGEFQKLGRATLEQTLARAGKTLAEVSLKAMLETFAFAAEEDLYEALGRGRVSAAKVGETLFPALKGR	-0.0985
HMERKMKNNISDQTTYDTDKILNFNGKGYLNGLVIPNNYQIKEEGYYVFRQVALDGREQILYFTIQDLS	-1.96
HMERLSVSMGDMVVFVRDAVEAFRGLVKEKGITLTFESKVEHFYMNYDHDKVYKVVNNLLSNAVKFT	-0.209
HMERLTVVPELLKRSLSEAQPLVTSARLRLEVSGGAPEDTSRAIVVGQKPPPGTRVQVGTTVIVTVQIQRP	-0.0498
HMERPYNGKQMEYHEGGVEKKETLFVEGGLSRVIQWDESGQKRSEVNISPTGVRREQYWDSSGKAIAKPS	0.228
HMERQAEAWTNRASALISLGRDEEALEAADRAIELDPRLSKAWIDRSTALSNLGRNDEANEAIQMAMFL	0.108
HMERQILFTKEDLIEFGLSGGTDSRKRRDVLGHILGIGYSNSKQFLNRLNNFGVTREEFLSAIERIG	-0.778
HMERTVEVVDINDVFSQFLRLYSRERAAGLLSVFKRVEHGLSWQGNPVLLERILSNVFENAIKYAA	-0.0515
HMERVIYLLNGREVPAAEIRAAEPEALTVDRFYSSENLPAEYRDRNPELVVAFTAEEPLRHY	0.358
HMERVNILEKATKDIPNVEVKAFEGLSVNFARENHAQVIVRGLRAVTDFEYELQMAQTNRVLAPDVDTVF	0.124
HMERYSVQVGSFRNMRYAERLKQELQGEDFPAYIEKSGEFNRVRVGKGLTLEEATQLEQVLRKSGYQTVIV	-0.395
HMESIGANIRRLRKERNMSQDELARKAFTNRSNINRYESGKMVPSADTTEKIEEALGVPAGTLAQ	0.132
HMESKDIRYVQLQTVSPEEVLQALALIMPRSDVYVEPTGKLVVLHGSKETLDRAEELILALDNAV	0.0118
HMESKITTAEAAAILNASPQFVRVAMQRGILNIGIAMQMPNSNKWTYNISPKLLGEYSGKNIEYELERLR	-1.54
HMESRTQVYDFYKDLFREKRRPLRAEEMLSALKSQRGIVGVNQYQIIEQHGIVRLSGSGRSALYWDTDLGS	-2.74
HMESSREVSFSEFMKQIDSGRVSSVKLDGETIYVRNSDGTSYKVIQPLGTDLIGVLRKSDIDVQAIKQ	-0.003

Sequence	soluble fraction (log2)
HMESYNIVEQVLTKKILSKGNTLAKLSNEFDGLVMLVIRGDEFIIPNGETLLFEKDILVINNGP	-1.72
HMESYTGLAVTEDDDGWSNVRSGNSTSYSILFKIYAGEKFNILSNDGKWSYIDFNGRKGYIHNSIIRKY	-3.87
HMETAADLLAAAKENPARFGILASEGRFGLGYMNDDLLDPDNLVAISREEADDLRGLGVYFHNLD	-0.0842
HMETALYVEDLDRAVRFYESVMGLNTMSRGVRLVALDAGEGTVLLLFLRGATTSGASFEGGWIPPH	-0.0244
HMETDNEKVRTAFQNGLAAYREQDWDRAEAAFGAVLAEMPEDRPSLVYLERIAHLRKKAPPGAWDGVWI	-0.0616
HMETENLSPREREILEYIVKGYSYKMIAADLNIATETVRSHIKKIYKKLQVNSATEAVYKYSN	-0.322
HMETEQVEMIRVVGMHVDEAKKALLDLGLSPEIKYEESSSYDAGTVLRASVQDGLMIDKGTNIVLTVAEA	0.121
HMETFEKIKELAKKRGKALGQVEEDLGYGRNTLYKIKNSTPNAERIAEIANYFNVSTDYLLGRTDNPTIAK	0.203
HMETFNMTQKEITRLRVINQAIDKVITIREAAELLGLSERQVIRLKGGVEKFGPAFIIHKNRGRKP	-0.71
HMETGLSNYEFKRIREQAEALLSDGQVRRINDLVDSIKNENAEKVIRVIRFLIDTEELILEDDRVSAKKS	-0.0558
HMETIVGIDPDSKKKIVLKKGIKGRPDYLSFNKKNYSLPSELKEKNVSLEQALEIINDKKSNKKKIK	0.334
HMETLSKVGSTGSEVRQIQTKLKNWGYFSDKVDGIYGEKTRAAVVWFQKKNGLTADGIAGPATLKAMGIYT	-0.171
HMETLSVRERMTSIISLLNKHEDIEFSKLFNISEGRLGVVVTFLALLELVKESLVDVIQNQPMSKLYIGKK	-0.311
HMETLTPQEHKVLLLAVKGRTNGEIASELGIAQNTVKNHLAHIYAKMGVGNRTELASEYLRRIH	0.0726
HMETTEELISKTVPISYADMAALTGILDGVKSARGDIQVDDRTSTIIIHDIQSSIDEMMRLIKILD	-0.999
HMETTMVEIKAEFTIRNRLDIPAMMEKAGYKDRGEFLSVLEKITGNYNWDRDVKKGDTFMVPSKLA	-0.777
HMETVPMIDLRGMTQEQAEKAIVGLGLTVGTVDHSSSDMPAGQVWFQSVEPKDEVAPGTKVNIIISTGS	-0.000277
HMETYNLDVGDSAVLQYQNVSRISVGNPDVLDAIPLDKSQILLTGKATGGAALIVWDSKGMHMEKVMVHPA	-0.156
HMETYTVSSKDGYANVRNEATVNSDLIAELKNGTLVTKFKEKGEWYYIEFEREDGTPFDYGYIHKSQLK	0.181
HMEVALEVPELRGLSMKQATNTLMASGFEVQKVGSGTIYAQFPLPGERLRTGYAVTIRGKTRDLG	-0.258
HMEVAPEKVLEALNELPEIYKIVLNLYAVENMSHKEIAKKLGISLGSSKSRLSRGRVMLNTLLNR	-1.42
HMEVDWLEVEKVIVSSSYSWMENSPKVKLLQEYIGVTADGIYGLGTWGAHRTHAVDLGFINLSYPIP	-0.127
HMEVEADEFQQLLRSGEYVQALDRARANQDIGLRQQQIVQIARHQAASGIQAGAMGSLASLYQF	0.0182
HMEVHLMPGTVLLREYESNEYRVTVTPEGFYDLNGKVFKSLSAVARHITGVNWSGPRFFGVEP	-2.08
HMEVLSYYGSRGQEVVNIQTKLKQWGYYKGNIDGIFGNLTYQAVREFQRKNGLKVDGIVGPETLAALGLPT	-0.187

Sequence	soluble fraction (log2)
HMEVPQVETEKVEAKLKEAEVLLVKVTDSSLKANATETLAGLRNNLTLQTMDNNGIMAEAEKLLALLRES	0.0393
HMEVPTGNHIRRWRKSLDITQVKLSSLSGVAQSIIAKIENETVDPRVSTLRKLVEALSRFENP	-1.89
HMEVQVGKQVRAFRETLGMTVQQFAERTGFSAALLAQIENRMVSPSLGTLVKIANTFGTTVSSFIG	0.0076
HMEVSTDADFEAVGIRAELIPILQKLGFTTVAQLKEVKATKLFNDIPGMRKKLKLDAVQNPTLQEIEGWLK	-0.0529
HMEVTLEEKLSYVEEYAKVHSHFSFRDLLKKQASKTQIVVTFLAILELMKTGKIQITQEHIFDDIVITAK	-0.0755
HMEVTYQETLRVLYNAIDKLPPQTKEIILIGLDGKDNNEIAATLNISVNTVKTLKKNAYKTLRELLVD	-0.157
HMEWNPEKQHLLENYITNYSRQLNDTGLFYKNLDWNYIFNLVGVDDQEFLMLKIDEIYDESINVY	-0.521
HMEWNREQLEQIVLQHIRKHGFITRATYTELTGRLKNSALADLKSFAAEGIIKRVGRGNQMHFIVPL	-2.42
HMEWTDHLAEELRSLAVEGEHLEIIANKLGISPGSARAKLVNLNIYNDYQLAHIERLEADTLQAK	-0.318
HMEYFDDEELDRYKGRTSDSFTDDEAEEFREVMMTMHPEEVKAWNRSLILRDVAMPDQIKDDYIMLAG	-0.0408
HMEYKYNPADYPYPLNEDIEKVYSAYREKSIGKLEAAVQNLYYTLKQARRDNILSDVKVNEMQQYFLALRN	-0.324
HMEYNLTLEELNRDLYIRGEIWNVGDVVKTTDGDEGTIIRKGTNYVVFEDLRRVWLHNLEEVK	-1.85
HMEYREFEAMTIRAIATLPPTQGHVIMLSRFEGLDNKEIALRLNLSLQTVKNTLTQGLKELKNKMRKLP	-1.8
HMEYSAAYDRELESIFNLTERGKWEEAEAEVGLLLQQYPEDKTLLRISEWVATQKTILREQAIEDRIRS	0.186
HMEYSYKLIDLLVDRFSEEGVDPEEAREYINLFHRFSQGLDPDKRDITKYSWDELYRTVNDKKDS	0.107
HMEYTVNHYPEKHRFEVVEDGLTAYVEYRLRGDALDIIHTIVPKNLEGRGIAATLVETAYKYAKEQ	-1.2
HMFAAIFADDSGFTTRSKRFGPYVEEIAADWQAVKQLSDEDAKQALVPLVKKIELALSTLQQFVSSV	-0.244
HMFAATGTVNTEGSSLRLRAEASTSSSVLKQLSHGTQVDVLSGLVDGWYQVSYKGTTGYVSGEYLTVTE	-0.451
HMFADLNPDENYGQVYIRTNTIDNLYQTLLDNKTRIHPNGLLELKPWGQKEFSILDPDKNLLTFGES	0.0797
HMFAERLKELRKMRRFSQHALAERLGISQQAVGKWETGKSTPDPATLREIADIFEVSVDLLLGR	-0.247
HMFDDEELDRFAGVPADAYLPADEDEFREVFYTMRPGEVVEWVRSLELRHIEIPNGIKDEIFMMIR	-3.35
HMFDEDKLIISIGSKVRIIREPYFGTIGKVVELPPELVKMDTEAMLRVAIIKLDDGEKVTIPRANLEVILS	-1.22
HMFDEVKDAARRLAALLDQAGGTLTLNDKSAPEEVAALTGMSKKVFKRALGHLMSRSEVVVADGRITKKD	-0.289
HMFDGRSDAEKTLDLIKTAIDNILKGGAIQEYKIGTRTAKKYDMAELQVLKGEYAAMVAREKQAETMA	-0.132
HMFDGVAAGKPAILDALEDAGGFLPLNSKSSVEEIQASFSFSKRVFKQLIGMLYKERKIVITDDGIRLAD	-0.352

From the domain aggregation screens of Martell et al. (2025)
